Measurements published in patent US20230220589A1.
Values belong to the binder of their own block, whether it stands above or below them.

Experiments:
[1] = target: M44-modified S NTAA target peptides; test: encoding assay; P2 G
[2] = target: M44-modified A NTAA target peptides (M44-A-P2-peptide); test: encoding assay; P2 G;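 further: fraction of recording tags encoded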
[3] = target: M44-modified D NTAA target peptides; test: encoding assay; P2 G;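 further: fraction of recording tags encoded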
[4] = target: M44-modified P NTAA target peptides; test: encoding assay; P2 G;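 further: fraction of recording tags encoded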
[5] = target: M44-modified N NTAA target peptides; test: encoding assay; P2 G
[6] = target: M44-modified H NTAA target peptides; test: encoding assay; P2 G;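 further: fraction of recording tags encoded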
[7] = target: M44-modified Y NTAA target peptides (M44-Y-P2-peptide); test: encoding assay; P2 Q;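 further: fraction of recording tags encoded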
[8] = target: M44-modified P NTAA target peptides; test: encoding assay; P2 Q;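 further: fraction of recording tags encoded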
[9] = target: M44-modified S NTAA target peptides; test: encoding assay; P2 H
[10] = target: M44-modified G NTAA target peptides (M44-G-P2-peptide); test: encoding assay; P2 H;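 further: fraction of recording tags encoded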
[11] = target: M44-modified E NTAA target peptides; test: encoding assay; P2 H;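 further: fraction of recording tags encoded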
[12] = target: M44-modified E NTAA target peptides; test: encoding assay; P2 A;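 further: fraction of recording tags encoded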
[13] = target: M17-modified A NTAA target peptides; test: encoding assay; P2 G;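 further: fraction of recording tags encoded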
[14] = target: M17-modified S NTAA target peptides; test: encoding assay; P2 G;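 further: fraction of recording tags encoded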
[15] = target: M17-modified V NTAA target peptides; test: encoding assay; P2 G;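 further: fraction of recording tags encoded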
[16] = target: M17-modified Y NTAA target peptides (M17-Y-P2-peptide); test: encoding assay; P2 G;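 further: fraction of recording tags encoded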
[17] = target: M17-modified D NTAA target peptides; test: encoding assay; P2 G;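 further: fraction of recording tags encoded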
[18] = target: M17-modified P NTAA target peptides; test: encoding assay; P2 G;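 further: fraction of recording tags encoded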
[19] = target: M17-modified M NTAA target peptides; test: encoding assay; P2 G;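 further: fraction of recording tags encoded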
[20] = target: M17-modified T NTAA target peptides; test: encoding assay; P2 G;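 further: fraction of recording tags encoded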
[21] = target: M17-modified F NTAA target peptides; test: encoding assay; P2 G;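 further: fraction of recording tags encoded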
[22] = target: M17-modified I NTAA target peptides; test: encoding assay; P2 G;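 further: fraction of recording tags encoded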
[23] = target: M17-modified Q NTAA target peptides; test: encoding assay; P2 G;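 further: fraction of recording tags encoded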
[24] = target: M17-modified E NTAA target peptides; test: encoding assay; P2 G;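 further: fraction of recording tags encoded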
[25] = target: M17-modified G NTAA target peptides; test: encoding assay; P2 G;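 further: fraction of recording tags encoded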
[26] = target: M17-modified H NTAA target peptides; test: encoding assay; P2 G;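 further: fraction of recording tags encoded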
[27] = target: M17-modified L NTAA target peptides; test: encoding assay; P2 G;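 further: fraction of recording tags encoded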
[28] = target: M17-modified N NTAA target peptides; test: encoding assay; P2 G;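 further: fraction of recording tags encoded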
[29] = target: M17-modified A NTAA target peptides; test: encoding assay; P2 Q;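 further: fraction of recording tags encoded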
[30] = target: M17-modified S NTAA target peptides; test: encoding assay; P2 Q;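 further: fraction of recording tags encoded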
[31] = target: M17-modified Y NTAA target peptides (M17-Y-P2-peptide); test: encoding assay; P2 Q;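 further: fraction of recording tags encoded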
[32] = target: M17-modified D NTAA target peptides; test: encoding assay; P2 Q;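 further: fraction of recording tags encoded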
[33] = target: M17-modified Q NTAA target peptides; test: encoding assay; P2 Q;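 further: fraction of recording tags encoded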
[34] = target: M17-modified E NTAA target peptides; test: encoding assay; P2 Q;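 further: fraction of recording tags encoded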
[35] = target: M17-modified L NTAA target peptides; test: encoding assay; P2 Q;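 further: fraction of recording tags encoded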
[36] = target: M17-modified A NTAA target peptides; test: encoding assay; P2 H;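 further: fraction of recording tags encoded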
[37] = target: M17-modified S NTAA target peptides; test: encoding assay; P2 H;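 further: fraction of recording tags encoded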
[38] = target: M17-modified V NTAA target peptides; test: encoding assay; P2 H;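 further: fraction of recording tags encoded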
[39] = target: M17-modified Y NTAA target peptides (M17-Y-P2-peptide); test: encoding assay; P2 H;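 further: fraction of recording tags encoded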
[40] = target: M17-modified D NTAA target peptides; test: encoding assay; P2 H;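 further: fraction of recording tags encoded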
[41] = target: M17-modified P NTAA target peptides; test: encoding assay; P2 H;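 further: fraction of recording tags encoded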
[42] = target: M17-modified M NTAA target peptides; test: encoding assay; P2 H;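 further: fraction of recording tags encoded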
[43] = target: M17-modified T NTAA target peptides; test: encoding assay; P2 H;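 further: fraction of recording tags encoded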
[44] = target: M17-modified F NTAA target peptides; test: encoding assay; P2 H;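 further: fraction of recording tags encoded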
[45] = target: M17-modified W NTAA target peptides; test: encoding assay; P2 H;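 further: fraction of recording tags encoded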
[46] = target: M17-modified I NTAA target peptides; test: encoding assay; P2 H;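 further: fraction of recording tags encoded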
[47] = target: M17-modified Q NTAA target peptides; test: encoding assay; P2 H;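 further: fraction of recording tags encoded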
[48] = target: M17-modified E NTAA target peptides; test: encoding assay; P2 H;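 further: fraction of recording tags encoded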
[49] = target: M17-modified G NTAA target peptides; test: encoding assay; P2 H;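 further: fraction of recording tags encoded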
[50] = target: M17-modified H NTAA target peptides; test: encoding assay; P2 H;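 further: fraction of recording tags encoded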
[51] = target: M17-modified L NTAA target peptides; test: encoding assay; P2 H;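 further: fraction of recording tags encoded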
[52] = target: M17-modified N NTAA target peptides; test: encoding assay; P2 H;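 further: fraction of recording tags encoded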
[53] = target: M17-modified A NTAA target peptides; test: encoding assay; P2 A;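 further: fraction of recording tags encoded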
[54] = target: M17-modified I NTAA target peptides; test: encoding assay; P2 A;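 further: fraction of recording tags encoded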

encoding yield [13]: 0.02
encoding yield [14]: 0.01
encoding yield [15]: 0.03
encoding yield [16]: 0.18
encoding yield [17]: 0.02
encoding yield [18]: 0.02
encoding yield [19]: 0.02
encoding yield [20]: 0.05
encoding yield [21]: 0.11
encoding yield [22]: 0.05
encoding yield [23]: 0.02
encoding yield [24]: 0.02
encoding yield [25]: 0.01
encoding yield [26]: 0.03
encoding yield [27]: 0.03
encoding yield [28]: 0.01
encoding yield [29]: 0.04
encoding yield [30]: 0.03
encoding yield [31]: 0.15
encoding yield [32]: 0.02
encoding yield [33]: 0.01
encoding yield [34]: 0.02
encoding yield [35]: 0.04
encoding yield [36]: 0.03
encoding yield [37]: 0.02
encoding yield [38]: 0.02
encoding yield [39]: 0.07
encoding yield [40]: 0.03
encoding yield [41]: 0.04
encoding yield [42]: 0.03
encoding yield [43]: 0.03
encoding yield [44]: 0.02
encoding yield [45]: 0.03
encoding yield [46]: 0.03
encoding yield [47]: 0.03
encoding yield [48]: 0.02
encoding yield [49]: 0.02
encoding yield [50]: 0.02
encoding yield [51]: 0.02
encoding yield [52]: 0.03
encoding yield [53]: 0.02
encoding yield [54]: 0.03
B3: upgraded binder after additional maturation round (SEQ ID NO: 62) (designed binder, not shown: small tags and cut ends; large carriers)
chain: TVPDRSEIAGKWYVVALASNTEFYLRGKDRVKSAMVRISFQGEDELKVSSAVPSPNGCYKVERTWKKTSDDGEVYNSRAAKLKVEVLDTDYKSYAVIYATRVKDRRTDHQMILYSRSPDVSPAATAIFRKLAGERNYTDEMVAMLPRQEECTVDEV

encoding yield [1]: 0.01
encoding yield [2]: 0.01
encoding yield [3]: 0.01
encoding yield [4]: 0.02
encoding yield [5]: 0.01
encoding yield [6]: 0.02
encoding yield [7]: 0.03
encoding yield [8]: 0.01
encoding yield [9]: 0.01
encoding yield [10]: 0.01
encoding yield [11]: 0.02
encoding yield [12]: 0.02
B4: engineered M44-L binder (SEQ ID NO: 31) (designed binder, not shown: small tags and cut ends; large carriers)
chain: QDSTQNLIPAPPLISVPLQPGFWTERFQGRWFLVGFAGNAVQKERQSRLTMQSLILELQEDNSYNITAINVRGQGCRYIISTLVPSSRPGQFTLGNIHSYPQIQSLDVQVADTDYDQFAMVFLQGTSENKQYFEVALAGRTKGLSDELKERFVSFAKSLGLKDNNIVFSVPTDQCIDN

The next lines start with the binder.

B1: engineered M44-A binder (SEQ ID NO: 42) (designed binder, not shown: small tags and cut ends; large carriers)
chain: QVSVQPNFQQDKFLGRWFVAGLASNSSWDREKVAALSGAKMVVAPATDGGLNVTRTMLRKNQCETYTGLLQPAGSLGSYSWRSPHPGSTGSESVVETDYDQYALVYGQGSKGPGEDLRAAALWSRTQTPRAELKEKFTAFSKAQGFTEDTIVFLPQTDKCMTEQ
encoding yield [1]: 0.01
encoding yield [2]: 0.07
encoding yield [3]: 0.01
encoding yield [4]: 0.02
encoding yield [5]: 0.01
encoding yield [6]: 0.02
encoding yield [7]: 0.02
encoding yield [8]: 0.01
encoding yield [9]: 0.01
encoding yield [10]: 0.01
encoding yield [11]: 0.03
encoding yield [12]: 0.02

B2: engineered M17-Y binder (SEQ ID NO: 61) (designed binder, not shown: small tags and cut ends; large carriers)
chain: TVPDRSEIAGKWYVVALASNTEFYLREKDWVKSAMARISFLGEDELKVSSAVPSPNGCYKVERTWKKTSDDGEVYNSRAAKLKVEVLDTDYKSYAVIYATRVKDGRTDHQMILYSRSPEVSPAATAIFRKLAGERNYTDEMVAMLPRQEECTVDEV
encoding yield [13]: 0.01
encoding yield [14]: 0.01
encoding yield [15]: 0.02
encoding yield [16]: 0.11
encoding yield [17]: 0.01
encoding yield [18]: 0.01
encoding yield [19]: 0.01
encoding yield [20]: 0.03
encoding yield [21]: 0.06
encoding yield [22]: 0.03
encoding yield [23]: 0.02
encoding yield [24]: 0.02
encoding yield [25]: 0.01
encoding yield [26]: 0.03
encoding yield [27]: 0.02
encoding yield [28]: 0.01
encoding yield [29]: 0.03
encoding yield [30]: 0.03
encoding yield [31]: 0.03
encoding yield [32]: 0.01
encoding yield [33]: 0.01
encoding yield [34]: 0.02
encoding yield [35]: 0.03
encoding yield [36]: 0.02
encoding yield [37]: 0.01
encoding yield [38]: 0.03
encoding yield [39]: 0.07
encoding yield [40]: 0.02
encoding yield [41]: 0.03
encoding yield [42]: 0.02
encoding yield [43]: 0.02
encoding yield [44]: 0.02
encoding yield [45]: 0.02
encoding yield [46]: 0.03
encoding yield [47]: 0.02
encoding yield [48]: 0.01
encoding yield [49]: 0.01
encoding yield [50]: 0.03
encoding yield [51]: 0.02
encoding yield [52]: 0.03
encoding yield [53]: 0.02
encoding yield [54]: 0.02
